In PMC10786891, “Massively parallel profiling of RNA-targeting CRISPR-Cas13d” one finds Kd data, which are given here for 32 molecules.

T1: EsCas13d, nuclease-dead (Eubacterium siraeum, UniProt B0MS50, R295A;H300A;R849A;H854A)
T1 sequence: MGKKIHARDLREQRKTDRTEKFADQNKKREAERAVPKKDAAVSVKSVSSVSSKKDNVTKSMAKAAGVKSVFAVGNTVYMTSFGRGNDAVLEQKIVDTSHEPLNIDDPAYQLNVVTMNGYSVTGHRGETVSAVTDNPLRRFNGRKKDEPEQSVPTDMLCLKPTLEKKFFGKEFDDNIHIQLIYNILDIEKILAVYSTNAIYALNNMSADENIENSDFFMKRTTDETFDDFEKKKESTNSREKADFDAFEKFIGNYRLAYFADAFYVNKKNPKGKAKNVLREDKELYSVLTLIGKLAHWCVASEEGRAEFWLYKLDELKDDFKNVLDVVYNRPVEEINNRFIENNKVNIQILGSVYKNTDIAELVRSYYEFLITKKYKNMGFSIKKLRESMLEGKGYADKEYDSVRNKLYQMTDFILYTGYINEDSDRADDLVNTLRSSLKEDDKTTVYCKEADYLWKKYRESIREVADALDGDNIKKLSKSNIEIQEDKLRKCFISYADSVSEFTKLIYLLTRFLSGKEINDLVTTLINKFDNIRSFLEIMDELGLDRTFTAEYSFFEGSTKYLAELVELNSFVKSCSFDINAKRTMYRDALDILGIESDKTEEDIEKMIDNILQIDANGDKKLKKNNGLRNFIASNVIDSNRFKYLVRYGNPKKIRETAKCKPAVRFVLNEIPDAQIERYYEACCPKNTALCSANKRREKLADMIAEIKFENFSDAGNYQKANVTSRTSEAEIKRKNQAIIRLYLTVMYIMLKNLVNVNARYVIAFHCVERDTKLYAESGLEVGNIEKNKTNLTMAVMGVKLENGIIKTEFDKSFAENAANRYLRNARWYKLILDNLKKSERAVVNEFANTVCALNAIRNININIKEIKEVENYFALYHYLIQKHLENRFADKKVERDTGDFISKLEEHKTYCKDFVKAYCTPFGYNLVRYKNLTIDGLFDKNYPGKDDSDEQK

B1: target 1 MT 5'PFS CAU 3'PFS UCA (mixed)
RNA 1: CACCCGUGCAAAAAUGCAGGGGUCUAAAACUGAGCGGAUAACCUCUCUAUGG
RNA 2: GGGAAUGGAUCCACAUCUACGAAUUCCAUCCAUAGAGAGGUUAUCCGCUCAUCAAGAUCGGAAGAGCACACGU
B2: target 1 insA 3' of 11,insC 3' of 8 (mixed)
RNA 1: B1 RNA 1
RNA 2: GGGAAUGGAUCCACAUCUACGAAUUCGUACCAUAGAGAGGUAUAUCCCGCUCACCGAGAUCGGAAGAGCACACGU
B3: target 1 MT 5'PFS GGA 3'PFS AUA (mixed)
RNA 1: B1 RNA 1
RNA 2: B1 RNA 2 with C27G, A28G, U29A, U52A, C53U
B4: target 1 MT 5'PFS UGC 3'PFS AUA (mixed)
RNA 1: B1 RNA 1
RNA 2: B1 RNA 2 with C27U, A28G, U29C, U52A, C53U
B5: target 1 MT 5'PFS GAG 3'PFS UCA (mixed)
RNA 1: B1 RNA 1
RNA 2: B1 RNA 2 with C27G, U29G
B6: target 1 MT 5'PFS UGC 3'PFS AUG (mixed)
RNA 1: B1 RNA 1
RNA 2: B1 RNA 2 with C27U, A28G, U29C, U52A, C53U, A54G
B7: target 1 insC 3' of 12,insC 3' of 12 (mixed)
RNA 1: B1 RNA 1
RNA 2: B2 RNA 2 with U41C, A42C, A44U, U45A, C46U
B8: target 1 MT 5'PFS AUG 3'PFS AUU (mixed)
RNA 1: B1 RNA 1
RNA 2: B1 RNA 2 with C27A, A28U, U29G, U52A, C53U, A54U
B9: target 1 MT 5'PFS CUG 3'PFS AGG (mixed)
RNA 1: B1 RNA 1
RNA 2: B1 RNA 2 with A28U, U29G, U52A, C53G, A54G
B10: target 1 MT 5'PFS ACG 3'PFS AUA (mixed)
RNA 1: B1 RNA 1
RNA 2: B1 RNA 2 with C27A, A28C, U29G, U52A, C53U
B11: target 1 MT 5'PFS CCU 3'PFS CAG (mixed)
RNA 1: B1 RNA 1
RNA 2: B1 RNA 2 with A28C, U52C, C53A, A54G
B12: target 1 MT 5'PFS ACG 3'PFS AUC (mixed)
RNA 1: B1 RNA 1
RNA 2: B1 RNA 2 with C27A, A28C, U29G, U52A, C53U, A54C
B13: target 1 MT 5'PFS GAG 3'PFS UCC (mixed)
RNA 1: B1 RNA 1
RNA 2: B1 RNA 2 with C27G, U29G, A54C
B14: target 1 MT 5'PFS GGC 3'PFS AGC (mixed)
RNA 1: B1 RNA 1
RNA 2: B1 RNA 2 with C27G, A28G, U29C, U52A, C53G, A54C
B15: target 1 MT 5'PFS GAG 3'PFS UCU (mixed)
RNA 1: B1 RNA 1
RNA 2: B1 RNA 2 with C27G, U29G, A54U
B16: target 1 U8C,U19C (mixed)
RNA 1: B1 RNA 1
RNA 2: B1 RNA 2 with C27G, A28U, U29A, U33C, U44C, U52C, A54G
B17: target 1 MT 5'PFS CAC 3'PFS UUU (mixed)
RNA 1: B1 RNA 1
RNA 2: B1 RNA 2 with U29C, C53U, A54U
B18: target 1 MT 5'PFS GAG 3'PFS UCG (mixed)
RNA 1: B1 RNA 1
RNA 2: B1 RNA 2 with C27G, U29G, A54G
B19: target 1 MT 5'PFS GCA 3'PFS CUG (mixed)
RNA 1: B1 RNA 1
RNA 2: B1 RNA 2 with C27G, A28C, U29A, U52C, C53U, A54G
B20: target 1 MT 5'PFS CAA 3'PFS ACC (mixed)
RNA 1: B1 RNA 1
RNA 2: B1 RNA 2 with U29A, U52A, A54C
B21: target 1 MT 5'PFS CCU 3'PFS CAA (mixed)
RNA 1: B1 RNA 1
RNA 2: B1 RNA 2 with A28C, U52C, C53A
B22: target 1 MT 5'PFS GGA 3'PFS AUG (mixed)
RNA 1: B1 RNA 1
RNA 2: B1 RNA 2 with C27G, A28G, U29A, U52A, C53U, A54G
B23: target 1 MT 5'PFS GGA 3'PFS AUC (mixed)
RNA 1: B1 RNA 1
RNA 2: B1 RNA 2 with C27G, A28G, U29A, U52A, C53U, A54C
B24: target 1 MT 5'PFS CCU 3'PFS CAC (mixed)
RNA 1: B1 RNA 1
RNA 2: B1 RNA 2 with A28C, U52C, C53A, A54C
B25: target 1 MT 5'PFS UGC 3'PFS AUU (mixed)
RNA 1: B1 RNA 1
RNA 2: B1 RNA 2 with C27U, A28G, U29C, U52A, C53U, A54U
B26: target 1 MT 5'PFS ACG 3'PFS AUG (mixed)
RNA 1: B1 RNA 1
RNA 2: B1 RNA 2 with C27A, A28C, U29G, U52A, C53U, A54G
B27: target 1 MT 5'PFS CCC 3'PFS AUU (mixed)
RNA 1: B1 RNA 1
RNA 2: B1 RNA 2 with A28C, U29C, U52A, C53U, A54U
B28: target 1 MT 5'PFS CCU 3'PFS CAU (mixed)
RNA 1: B1 RNA 1
RNA 2: B1 RNA 2 with A28C, U52C, C53A, A54U
B29: target 1 MT 5'PFS UGC 3'PFS AUC (mixed)
RNA 1: B1 RNA 1
RNA 2: B1 RNA 2 with C27U, A28G, U29C, U52A, C53U, A54C
B30: target 1 MT 5'PFS AUG 3'PFS AUG (mixed)
RNA 1: B1 RNA 1
RNA 2: B1 RNA 2 with C27A, A28U, U29G, U52A, C53U, A54G
B31: target 1 MT 5'PFS GCA 3'PFS CUC (mixed)
RNA 1: B1 RNA 1
RNA 2: B1 RNA 2 with C27G, A28C, U29A, U52C, C53U, A54C
B32: target 1 MT 5'PFS CCC 3'PFS AUG (mixed)
RNA 1: B1 RNA 1
RNA 2: B1 RNA 2 with A28C, U29C, U52A, C53U, A54G

Where a chain is given by its changes, count along the chain named. Numbers in names are those of the source.

The target in the series is T1, EsCas13d, nuclease-dead. The experiment in a line: crRNA (strand 1, pre-loaded); Mg2+; 40 mM Tris-HCl pH 7.5, 150 mM NaCl, 6 mM MgCl2, 1 mM DTT, 0.1% Tween-20, 0.2 mg/ml BSA; 25 C; 10 min per concentration, then washed. To be noted: tags: His6-TwinStrep-SUMO cleaved; N-terminal SNAP kept (SNAP-Surface 488); label: 3' end held by stalled T7 RNA polymerase.
Take B1: the Kd (commonly the free concentration of one partner at which half of the binding sites on the other are occupied at equilibrium, for simple one-to-one binding) is around 35 nM.

In turn, B2 registered a Kd of 16.7 ± 1.1 nM. B3 returned a Kd of 29 ± 7 nM. This Kd lies about 1.7-fold higher than the previous one. The molecule B4 yielded a Kd of 16.5 ± 6 nM.

B5: the Kd is around 47.5 nM. B6 displayed a Kd of around 55.5 nM. The molecule B7 registered a Kd of 18.3 ± 1.3 nM.

As for B8, the affinity, expressed as Kd, was 11.4 ± 2.5 nM. On to B9, for which the Kd is 66.5 ± 33 nM. B10 returned a Kd of 16.5 ± 6.5 nM. For the molecule B11, the Kd is around 26 nM.

B12 registered a Kd of around 24.5 nM. With B13, binding was put at a Kd of 55.5 ± 26.5 nM.

With B14, binding was characterised by a dissociation constant (Kd) of 9.95 ± 1.75 nM. This Kd lies about 5.6-fold lower than the previous one.

Molecule B15 showed a Kd of 29 ± 9 nM. On to B16, for which the affinity, expressed as Kd, was 41.1 ± 2.3 nM. Molecule B17 yielded a Kd of 7.15 ± 2.4 nM. Next, B18: 42 ± 16 nM; B19: 11.9 ± 3.35 nM; B20: 14.8 ± 5.05 nM.

As to B21, the Kd was determined as 55 ± 19 nM. B22 yielded a Kd of 34.5 ± 6.5 nM. B23 showed a Kd of 22.5 ± 9 nM. Consider B24, for which the Kd was found to be 15.2 ± 5.15 nM. Next, B25: 18.6 ± 5.1 nM. With B26, the Kd is 45 ± 18.5 nM. Against the preceding molecule, the Kd is about 2.4-fold higher. Molecule B27 displayed a Kd of around 8 nM. The molecule B28 displayed a Kd of 13.5 ± 5.5 nM.

Molecule B29 came in with a Kd of 52.5 ± 23 nM.

B30 displayed a Kd of 49 ± 18 nM. Molecule B31 returned a Kd of around 19.5 nM. As to B32, the Kd was 31 ± 14 nM.
